Test results from publication PMC8405998, “Catalytic mechanism of ancestral L-lysine oxidase assigned by sequence data mining” (The Journal of Biological Chemistry, 2021).

Key:
N=C(N)NCCC[C@H](N)C(=O)O = assay: purified protein; settings: 100 mM Bis-Tris-HCl pH 7.0, O2 as co-substrate
AncLLysO = target: T1, AncLLysO (synthetic construct, UniProt Z9DQU9YC40); assay: X-ray crystal structure, […]-2.[…] Å; assay type: binding; settings: substrate-free form; crystals at pH 7.5
T1 sequence (Z9DQU9YC40 1-589): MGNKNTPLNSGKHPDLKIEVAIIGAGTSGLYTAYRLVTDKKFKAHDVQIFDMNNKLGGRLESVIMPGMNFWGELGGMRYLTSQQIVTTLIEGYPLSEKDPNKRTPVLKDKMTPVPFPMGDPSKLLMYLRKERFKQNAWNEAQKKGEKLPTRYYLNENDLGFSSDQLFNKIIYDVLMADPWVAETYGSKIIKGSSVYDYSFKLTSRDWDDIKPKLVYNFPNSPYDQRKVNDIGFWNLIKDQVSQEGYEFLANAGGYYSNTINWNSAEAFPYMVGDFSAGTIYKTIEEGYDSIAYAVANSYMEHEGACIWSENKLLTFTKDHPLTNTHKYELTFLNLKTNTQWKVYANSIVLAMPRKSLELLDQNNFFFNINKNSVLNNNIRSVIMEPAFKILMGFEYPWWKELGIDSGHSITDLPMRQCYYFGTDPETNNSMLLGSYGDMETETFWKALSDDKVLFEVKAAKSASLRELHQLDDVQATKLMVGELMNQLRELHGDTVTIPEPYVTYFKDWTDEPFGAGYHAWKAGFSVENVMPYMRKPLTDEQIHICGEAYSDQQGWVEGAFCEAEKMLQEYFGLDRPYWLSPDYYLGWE

purified protein [1] = substrate: N=C(N)NCCC[C@H](N)C(=O)O; assay: purified protein; settings: 100 mM Bis-Tris-HCl pH 7.0, O2 as co-substrate; remark: listed apart in the source
purified protein [2] = substrate: NCCCC[C@H](N)C(=O)O; assay: purified protein; settings: 100 mM Bis-Tris-HCl pH 7.0, O2 as co-substrate
purified protein [3] = substrate: NCCC[C@H](N)C(=O)O; assay: purified protein; settings: 100 mM Bis-Tris-HCl pH 7.0, O2 as co-substrate

In the case of AncLLysO (synthetic construct), the Km (N=C(N)NCCC[C@H](N)C(=O)O) is reported as 6900 ± 1100 µM, the kcat (N=C(N)NCCC[C@H](N)C(=O)O) is reported as 11.4 ± 1 s⁻¹ and the kcat/Km (N=C(N)NCCC[C@H](N)C(=O)O) is reported as 1700 M⁻¹ s⁻¹.

With `Cc1cc2nc3c(=O)[nH]c(=O)nc-3n(C[C@H](O)[C@H](O)[C@H](O)COP(=O)(O)OP(=O)(O)OC[C@H]3O[C@@H](n4cnc5c(N)ncnc54)[C@H](O)[C@@H]3O)c2cc1C` [FAD] the “X-ray crystal structure, 2.2-2.4 Å” value (AncLLysO) was “the Rossmann-core fold, which recognizes FAD”.

B1: CaLLysO (Chryseobacterium angstadtii) (protein)
chain: MNKNTPLNTGKQPDLKTEVAIIGAGTSGLYTAYRLVTDKKYTASEVQIFDMNDKLGGRLESVIMPGMNFWGELGGMRYLTSQEIVTTLIEGYPLSETDPAKRIPVLKDKMTPVPFPMGDPSKLLMYLRKDRCKQDAWTVAQGEGEKLPTRYYLNDDDFGFSSDQLFNKVIYDVLMADAWVAETYGKKIIKGSSIYDYSFELTSRDWDDIKPKLVYNFPNSPYDQRKVNDLGFWNLLKDQVSQEGYEFLANAGGYYSNTINWNAAEAFPYMVGDFSAGTIYKTIEEGYDSIAYAVANSYMEHEGACIWSKNKLLTFTKDHDLKSTYKYRLTFLNLETNTQWNVYANTLVLAMPRKSLELLDQDNFFFNINENSVLNENIRSVIMEPAFKILMGFPYPWWKELGIDSGHSITDLPMRQCYYFGTDPQTNNSMLLGSYGDMETETFWKALSDDKILFEVKAAKSASLKELHELDDVQATRMMVDELMNQLRELHGEEITIPEPYVTYFKDWTDEPFGAGYHAWKAGFSVENVMPYMRKPVADEQIHIVGEAYSDQQGWVEGAFCEAEKMLQEYFGLNRPIWLNPDYYLGW
B1 showed a Km (purified protein [1]) of 340 ± 30 µM, a kcat (purified protein [1]) of 11.4 ± 0.1 s⁻¹ and a kcat/Km (purified protein [1]) of 33200 M⁻¹ s⁻¹. For the same molecule, the Km (purified protein [2]) was 27 ± 3 µM, the Km (purified protein [3]) was 4400 ± 400 µM and the kcat (purified protein [3]) was 3.6 s⁻¹. It also gave a kcat/Km (purified protein [3]) of 810 M⁻¹ s⁻¹.
